For orientation: EC50 means the concentration that produces a half-maximal response. One may read the IC50 as the concentration that inhibits the measured activity by half. What is called Kd is a measure of binding affinity in units of concentration. In general, koff refers to a measure of how fast the partners let go of each other. In general, kon refers to the rate constant with which the complex forms.

Changes are numbered by the printed parent chain.

For assay [1], the target named is T1, human PCSK9 (proprotein convertase subtilisin kexin type 9) (human, UniProt Q8NBP7 31-692).
T1 construct: Directly immobilized (SPR ProteOn), biotinylated (BLI), or in solution, depending on the assay; also called hPCSK9
Put plainly: FRET, competitor EGFA peptide. From the text:
(§1) Table 11 summarizes the overall data from these three FRET assays.

In another assay the target is cynomolgus monkey PCSK9 (cynomolgus monkey, UniProt A0A7N9D9N8 150-747). Briefly: FRET, competitor EGFA peptide.
From the text: as §1

In assay [2] the target is T1, human PCSK9 (proprotein convertase …). Put plainly: BLI, biotinylated hPCSK9 on sensor tips. On the procedure:
(§2) Tips were then immersed into a buffer-only well for observation of Adnectin dissociation. Experiments were performed in a temperature controlled environment at either 25 or 37° C., and the oscillation speed was set at 1500 rpm.
(§3) Binding interaction analysis was performed using proprietary software from Fortebio (Fortebio Data Analysis Software version 6.3.0.36). Global fits were performed for all samples, using a 1:1 binding model. The nature of these global fits constrained all values of concentration to a single pair of association and dissociation rates that were themselves constrained to each other. Affinities (KD), association and dissociation rates were averaged over the various loading levels used in the analysis.
For orientation: In BLI a coated tip is dipped into the sample, and binding shifts an interference pattern.

The target is the same in assay [3]. Briefly: FRET direct binding, anti-his6 antibody.
From the text: as §1

Assay [4] shares this target. Put plainly: BLI Octet Red, 37 C. On the procedure:
as §2, §3

For assay [5] the target is unchanged. Put plainly: FRET, competitor ATI001125.
From the text: as §1

B1: 2382B10 (designed binder)
chain: MGVSDVPRDLEVVAATPTSLLISWDAPADAYGYYRITYGETGGNSPVQEFTVPSSKGTATISGLKPGVDYTITVYAVEYDFPGSGYYHRPISINYRTEIDKPSQHHHHHH
notes: Anti-PCSK9 Adnectin, His6-tagged
As for B1, the EC50 in assay [1] is 3 nM; with cynomolgus monkey PCSK9 it was 18.1 nM; in assay [3], 3.1 nM. Also, the IC50 in assay [1] worked out at 3 nM; in assay [5], 0.5 nM. The dissociation constant Kd in assay [2] and in assay [4] was 2.35 nM throughout. In assay [2], the koff turned out to be 0.000977 s⁻¹. Moreover, the kon in assay [2] is 394000 M⁻¹ s⁻¹.

B2: 2382H09 (designed binder)
chain: B1 chain with D29A, Y79F
notes: as for B1
Take B2: the EC50 in assay [1] came out at 0.9 nM; with cynomolgus monkey PCSK9 it was 17.9 nM; in assay [3] it was 3.6 nM. The IC50 in assay [1] came to 0.9 nM; in assay [5], 0.3 nM. Also, the equilibrium dissociation constant (Kd) in assay [2] and in assay [4] was 1.86 nM each time. The molecule also yielded a koff in assay [2] of 0.000483 s⁻¹. Also, in assay [2], the kon amounted to 251000 M⁻¹ s⁻¹.

B3: 2382C09 (designed binder)
chain: B1 chain with D29E, A30G, S54V, Y79F
notes: as for B1
For the molecule B3, the results for the EC50 (in assay [1]; with cynomolgus monkey PCSK9; in assay [3]) were 3.5 nM, 23.9 nM and 2.9 nM, respectively. In addition, the IC50 in assay [1] was 3.5 nM; in assay [5] it was 0.6 nM. The Kd in assay [2] and in assay [4] was 0.757 nM throughout. In assay [2], this molecule registered an off-rate constant (koff) of 0.000233 s⁻¹. This molecule also showed an on-rate (kon) in assay [2] of 349000 M⁻¹ s⁻¹.

B4: 2451H07 (designed binder)
chain: MGITDVPRDLEVVAATPTSLLISWNPPDVNYGYYRITYGETGGNSPLQEFTVPVSKGTATISGLKPGVDYTITVYAVEYPYAHAGYYHRPISINYRTEIDKPSQHHHHHH
notes: as for B1
In the case of B4, the EC50 in assay [1] came to 0.2 nM; with cynomolgus monkey PCSK9, 27.1 nM; in assay [3] it was 13.2 nM. Besides, the IC50 in assay [1] and in assay [5] was 0.2 nM in each case. Also, the Kd in assay [2] and in assay [4] was 2.08 nM each time. The molecule further gave a koff in assay [2] of 0.00094 s⁻¹. This molecule also had a kon in assay [2] of 448000 M⁻¹ s⁻¹.

B5: 2382H10 (designed binder)
chain: B1 chain with D29G, A30G, S54V, Y79F
notes: as for B1
For the molecule B5, the concentration for a half-maximal effect (EC50) came out at 2.6 nM in assay [1], 18.2 nM with cynomolgus monkey PCSK9 and 4.6 nM in assay [3]. The IC50 amounted to 2.6 nM in assay [1] and 0.4 nM in assay [5]. The Kd in assay [2] and in assay [4] was 1.4 nM in each case. Moreover, in assay [2], the koff is 0.000382 s⁻¹. In assay [2], this molecule came in with a kon of 288000 M⁻¹ s⁻¹.

B6: 2382D09 (designed binder)
chain: B1 chain with D29E, A30G, S54V, Y79F, S84A
notes: as for B1
For B6, the 50% effective concentration (EC50) was 2.6 nM in assay [1], 13.9 nM in the assay with cynomolgus monkey PCSK9 and 3.7 nM in assay [3]. Besides, the figures for the IC50 in assay [1] and in assay [5] were 2.6 nM and 0.4 nM, respectively. Besides, the Kd in assay [2] and in assay [4] was 0.304 nM in each case. This molecule gave a koff in assay [2] of 0.000164 s⁻¹. The same molecule yielded a kon in assay [2] of 533000 M⁻¹ s⁻¹.

B7: 2381B08 (designed binder)
chain: MGVSDVPRDLEVVAATPTSLLISWDAPADGGYGYYRITYGETGGNSPVQEFTVPSSKGTATISGLKPGVDYTITVYAVEYTFPGAGYYHRPISINYRTEIDKPSQHHHHHH
notes: as for B1
In the case of B7, the concentration giving a half-maximal response (EC50) was determined as 2.6 nM in assay [1], 27.1 nM with cynomolgus monkey PCSK9 and 4.1 nM in assay [3]. Moreover, the IC50 was 2.6 nM in assay [1] and 1 nM in assay [5]. Also, the Kd in assay [2] and in assay [4] was 4.11 nM throughout. Besides, in assay [2], the koff came to 0.00094 s⁻¹. Besides, in assay [2], the kon was 213000 M⁻¹ s⁻¹.

B8: 2382D03 (designed binder)
chain: B7 chain with G30E, G31A, S55V, Y80F, T81D
notes: as for B1
With B8, the EC50 stood at 3.3 nM in assay [1], 11.8 nM with cynomolgus monkey PCSK9 and 3.3 nM in assay [3]. Besides, the IC50 in assay [1] came to 3.3 nM; in assay [5], 0.6 nM. The Kd in assay [2] and in assay [4] was 1.53 nM each time. This molecule also returned a koff in assay [2] of 0.000663 s⁻¹. The kon in assay [2] amounted to 354000 M⁻¹ s⁻¹.

B9: 2381F11 (designed binder)
chain: B7 chain with S55V, G58S
notes: as for B1
As to B9, the values for the EC50 (in assay [1]; with cynomolgus monkey PCSK9; in assay [3]) were 4 nM, 26.5 nM and below 1 nM, respectively. The 50% inhibitory concentration (IC50) turned out to be 4 nM in assay [1] and 0.8 nM in assay [5]. Further, the dissociation constant Kd in assay [2] and in assay [4] was 1.59 nM throughout. In assay [2], this molecule yielded a koff of 0.000522 s⁻¹. This molecule yielded an on-rate constant (kon) in assay [2] of 323000 M⁻¹ s⁻¹.

B10: 2381H09 (designed binder)
chain: B7 chain with D29G, S55V, Y80F, T81D, P83V
notes: as for B1
For the molecule B10, the EC50 in assay [1] was 3.4 nM; with cynomolgus monkey PCSK9 it was 20.2 nM; in assay [3] it was 4.1 nM. Also, the half-inhibitory concentration (IC50) in assay [1] stood at 3.4 nM; in assay [5] it was 0.5 nM. In addition, the dissociation constant (Kd) in assay [2] and in assay [4] was 3.23 nM each time. In assay [2], this molecule came in with a koff of 0.00046 s⁻¹. Besides, in assay [2], the kon turned out to be 136000 M⁻¹ s⁻¹.

B11: 2382C05 (designed binder)
chain: B7 chain with G31A, S55V, T81S
notes: as for B1
Turning to B11, the EC50 in assay [1] amounted to 4 nM; with cynomolgus monkey PCSK9, 27.2 nM; in assay [3], 3.4 nM. In addition, the IC50 in assay [1] was 4 nM; in assay [5], 0.9 nM. Also, the Kd in assay [2] and in assay [4] was 2.49 nM in each case. In assay [2], this molecule had a koff of 0.000879 s⁻¹. Also, in assay [2], the kon is 368000 M⁻¹ s⁻¹.

B12: 2382G04 (designed binder)
chain: B7 chain with D29G, Y80F, T81D
notes: as for B1
For the molecule B12, the EC50 in assay [1] stood at 2.9 nM; with cynomolgus monkey PCSK9, 20.1 nM; in assay [3], 3.6 nM. For the same molecule, the values for the IC50 in assay [1] and in assay [5] were 2.9 nM and 0.5 nM, respectively. Further, the Kd in assay [2] and in assay [4] was 1.11 nM throughout. Also, the koff in assay [2] was 0.000464 s⁻¹. Also, the kon in assay [2] came out at 419000 M⁻¹ s⁻¹.

B13: 2382E05 (designed binder)
chain: B7 chain with D29E, S55V, Y80F, T81D
notes: as for B1
Regarding B13, the EC50 in assay [1] was determined as 2.8 nM; with cynomolgus monkey PCSK9, 12.6 nM; in assay [3], 3.8 nM. Further, the IC50 in assay [1] was found to be 2.8 nM; in assay [5], 0.4 nM. Besides, the Kd in assay [2] and in assay [4] was 0.604 nM in each case. For the same molecule, the koff in assay [2] turned out to be 0.00025 s⁻¹. The same molecule gave a kon in assay [2] of 436000 M⁻¹ s⁻¹.

B14: 2381G09 (designed binder)
chain: B7 chain with D29G, G30D, S55V, Y80F
notes: as for B1
Regarding B14, the values for the EC50 (in assay [1]; with cynomolgus monkey PCSK9; in assay [3]) were 3.1 nM, 25.2 nM and 4.5 nM, respectively. The values for the IC50 in assay [1] and in assay [5] were 3.1 nM and 1.1 nM, respectively. The dissociation constant (Kd) in assay [2] and in assay [4] was 1.12 nM each time. In assay [2], this molecule returned a koff of 0.000291 s⁻¹. The molecule also gave a kon in assay [2] of 271000 M⁻¹ s⁻¹.

B15: 2382E03 (designed binder)
chain: B7 chain with D29G, G30D, S55V, Y80F, T81D
notes: as for B1
Take B15: the EC50 stood at 2.4 nM in assay [1], 10.8 nM with cynomolgus monkey PCSK9 and 3.7 nM in assay [3]. Moreover, the IC50 in assay [1] is 2.4 nM; in assay [5], 0.5 nM. In addition, the Kd in assay [2] and in assay [4] was 2.94 nM each time. The same molecule gave a koff in assay [2] of 0.000596 s⁻¹. Moreover, in assay [2], the kon is 220000 M⁻¹ s⁻¹.

B16: 2381D04 (designed binder)
chain: MGVSDVPRDLEVVAATPTSLLISWEPFSRLPGGGEYYRITYGETGGNSPLQQFTVPGSKGTATISGLKPGVDYTITVYAVEFPYDHSGYYHRPISINYRTEIDKPSQHHHHHH
notes: as for B1
Turning to B16, the values for the EC50 (in assay [1]; in the assay with cynomolgus monkey PCSK9; in assay [3]) were 2.9 nM, 12 nM and 3.7 nM, respectively. Moreover, the IC50 was determined as 2.9 nM in assay [1] and 0.5 nM in assay [5]. For the same molecule, the Kd in assay [2] and in assay [4] was 0.237 nM throughout. This molecule also displayed a koff in assay [2] of 6.9e-05 s⁻¹. In assay [2], this molecule showed a kon of 266000 M⁻¹ s⁻¹.

B17: 2381B04 (designed binder)
chain: B16 chain with F82Y, D85E
notes: as for B1
Regarding B17, the results for the EC50 (in assay [1]; in the assay with cynomolgus monkey PCSK9; in assay [3]) were 2.4 nM, 17.3 nM and 4.2 nM, respectively. Moreover, the IC50 was 2.4 nM in assay [1] and 0.5 nM in assay [5]. Besides, the Kd in assay [2] and in assay [4] was 0.527 nM in each case. Also, the koff in assay [2] worked out at 0.00016 s⁻¹. Moreover, the kon in assay [2] was 309000 M⁻¹ s⁻¹.

B18: 2381B02 (designed binder)
chain: B16 chain with F82Y, H86Y
notes: as for B1
Turning to B18, the values for the EC50 (in assay [1]; with cynomolgus monkey PCSK9; in assay [3]) were 2.5 nM, 9.8 nM and 8.4 nM, respectively. The IC50 in assay [1] worked out at 2.5 nM; in assay [5], 0.5 nM. The dissociation constant Kd in assay [2] and in assay [4] was 3.29 nM in each case. In assay [2], this molecule registered a koff of 0.000831 s⁻¹. In assay [2], this molecule gave a kon of 265000 M⁻¹ s⁻¹.

The record behind these values is US20120094909A1 (Bristol-Myers Squibb, published 2012).
